The record followed here is PMC5118228 (EJNMMI Research, 2016).

The test system of this series is AR42J tumor-bearing mice. As to conditions: male, athymic nu/nu, mouse, in vivo, iv, 0.3 nmol.

Where two headings read alike, the source gives them in different places.

Turning to `C[C@@H](O)[C@H](NC(=O)[C@@H]1CSSC[C@H](NC(=O)[C@@H](Cc2ccccc2)NC(=O)CN2CCN(CC(=O)O)CCN(CC(=O)O)CCN(CC(=O)O)CC2)C(=O)N[C@@H](Cc2ccc(O)cc2)C(=O)N[C@H](Cc2c[nH]c3ccccc23)C(=O)N[C@@H](CCCCN)C(=O)N[C@@H]([C@@H](C)O)C(=O)N1)C(=O)O` [^111In-DOTATATE, metal not drawn], the Tumor uptake (10 min) is 6.3 ± 1.3 %IA/g. For the setting “1 h”, this compound showed a Renal activity of 10.9 ± 0.6 %IA/g and a Tumor uptake of 6.0 ± 1.2 %IA/g.
